From patent US20260028424A1 (GRANULAR THERAPEUTICS, published 2026)

Legend:
[1] = biological target: T1, human CD203c expressed on the surface of KU812 cells (human, UniProt O14638 1-875); assay: flow cytometry on KU812 cells, which carry both c-Kit and CD203c; signal not separated by target
T1 construct: whole, on cells; also called cell-surface CD203c; cell surface CD203c on KU812 cells
T1 sequence (looked up): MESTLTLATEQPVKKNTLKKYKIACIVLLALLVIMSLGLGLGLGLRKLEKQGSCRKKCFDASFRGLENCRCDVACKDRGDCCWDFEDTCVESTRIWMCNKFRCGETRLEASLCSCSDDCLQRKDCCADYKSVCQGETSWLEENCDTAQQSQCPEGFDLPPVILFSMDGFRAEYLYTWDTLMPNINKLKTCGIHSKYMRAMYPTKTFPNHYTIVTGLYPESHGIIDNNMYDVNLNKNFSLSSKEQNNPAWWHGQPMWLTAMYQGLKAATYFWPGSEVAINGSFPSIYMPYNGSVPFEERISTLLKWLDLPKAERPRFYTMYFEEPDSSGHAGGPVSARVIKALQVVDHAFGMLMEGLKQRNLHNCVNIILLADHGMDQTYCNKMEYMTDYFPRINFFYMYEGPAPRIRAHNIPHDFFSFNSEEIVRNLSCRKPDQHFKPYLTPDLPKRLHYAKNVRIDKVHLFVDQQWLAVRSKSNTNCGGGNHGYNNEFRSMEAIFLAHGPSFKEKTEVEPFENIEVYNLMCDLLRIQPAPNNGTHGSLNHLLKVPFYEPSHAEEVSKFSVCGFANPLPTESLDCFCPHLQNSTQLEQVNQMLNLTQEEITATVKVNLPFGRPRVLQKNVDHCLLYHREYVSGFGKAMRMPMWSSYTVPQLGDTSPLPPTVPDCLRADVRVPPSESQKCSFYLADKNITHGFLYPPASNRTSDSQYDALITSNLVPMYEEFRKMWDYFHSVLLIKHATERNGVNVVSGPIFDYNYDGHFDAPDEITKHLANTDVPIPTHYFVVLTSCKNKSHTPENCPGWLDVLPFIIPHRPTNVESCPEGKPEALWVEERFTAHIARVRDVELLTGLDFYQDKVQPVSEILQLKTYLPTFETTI
Description: (§1) All treatments were performed on cells seeded in T75 flasks at a seeding density of 0.3e6/ml. Cells were cultured in the presence of 80 ng/ml of SCF and treated with 20 ng/ml of IL3 24 hours prior to antibody staining. Following SCF/IL3 treatment, cells were harvested and stained with live dead stain (Zombie UV Biolegend 423108). Cells were then stained with a titration of anti-CD203c antibodies/bispecifics or respective isotype controls in a 5-fold dilution series starting at 50 μg/mL and detected with Anti human-Fc AF647 antibody (JIR 109-605-098). Samples were subsequently run on a Yeti analyzer, gating on 10K live cells. Subsequent analysis was performed using FlowJo software and data represented as MFI (median fluorescent intensity).
(§2) The purified proteins were assessed for co-operative binding to both targets, CD203c and c-Kit, on KU812 cells. […] This enhanced binding translates to potent inhibition of c-Kit receptor phosphorylation by the F6/MH1 bispecific molecule when compared to monovalent anti-c-kit, which is shown in FIG. 8.

[2] = biological target: T2, c-Kit on KU812 cells (UniProt P10721 26-976, limits assumed); assay: as above
T2 construct: whole, on cells; also called c-Kit receptor; CD117
Description: as §1, §2

T2 sequence (P10721 26-976 limits assumed): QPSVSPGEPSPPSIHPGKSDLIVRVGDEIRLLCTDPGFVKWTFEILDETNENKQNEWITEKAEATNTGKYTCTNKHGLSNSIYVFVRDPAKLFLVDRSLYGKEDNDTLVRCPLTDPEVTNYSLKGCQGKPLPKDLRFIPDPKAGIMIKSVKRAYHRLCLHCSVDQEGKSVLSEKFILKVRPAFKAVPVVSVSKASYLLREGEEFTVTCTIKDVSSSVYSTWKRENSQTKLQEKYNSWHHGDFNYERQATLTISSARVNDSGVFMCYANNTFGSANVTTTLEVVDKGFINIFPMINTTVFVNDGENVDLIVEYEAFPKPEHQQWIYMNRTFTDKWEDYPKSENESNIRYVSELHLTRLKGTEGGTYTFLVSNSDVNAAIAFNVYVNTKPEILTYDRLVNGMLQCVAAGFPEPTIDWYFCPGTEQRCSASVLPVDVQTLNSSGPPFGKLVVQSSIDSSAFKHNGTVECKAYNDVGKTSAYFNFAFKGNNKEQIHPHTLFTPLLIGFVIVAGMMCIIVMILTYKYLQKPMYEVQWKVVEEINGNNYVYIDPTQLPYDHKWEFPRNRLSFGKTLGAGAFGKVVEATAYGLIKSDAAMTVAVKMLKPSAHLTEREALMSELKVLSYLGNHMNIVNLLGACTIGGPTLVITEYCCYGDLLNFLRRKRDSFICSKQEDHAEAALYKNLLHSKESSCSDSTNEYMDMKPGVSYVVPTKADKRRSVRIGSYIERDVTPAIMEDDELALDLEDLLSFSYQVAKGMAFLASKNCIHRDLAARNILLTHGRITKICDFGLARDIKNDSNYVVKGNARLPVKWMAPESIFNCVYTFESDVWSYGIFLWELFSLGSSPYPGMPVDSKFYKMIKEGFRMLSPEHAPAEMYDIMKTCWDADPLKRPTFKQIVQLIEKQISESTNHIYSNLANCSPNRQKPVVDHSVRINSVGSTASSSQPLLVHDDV

B1: 1.27/MH1 common light chain bispecific (anti-CD203c 1.27 x anti-c-Kit MH1) (bispecific antibody, V domains shown)
VH 1: QVQLVQSGAEVKKPGASVKVSCKASGYTFTDYYMNWVRQAPGQGLEWMGRIYPGSGNTYYAQKFQGRVTMTRDTSTSTVYMELSSLRSEDTAVYYCARGVYYYDYWGQGTLVTVSS
VH 2: EVQLVQSGAEVKKPGESLKISCKGSGYRFTSYWIGWVRQMPGKGLEWMGIIYPGDSDTRYSPSFQGQVTISADKSISTAYLQWSSLKASDTAMYYCARKDYYYYAMDVWGQGTTVTVSS
VL: DIQMTQSPSSLSASVGDRVTITCRASQGIRTNLAWFQQKPGKAPKSLIYAASSLQSGVPSRFSGSGSGTDFTLTISSLQPEDFATYYCQQYNSYPRTFGGGTKVEIK
notes: Knob-in-hole IgG1null bispecific with human Ckappa
[1]
  binding result: binds
[2]
  binding result: binds
